Measurements: IntAct's records for PubMed 19955438

B1: 1-phosphatidylinositol 4,5-bisphosphate phosphodiesterase gamma-1 (Bos taurus (Bovine)), P08487 (parent)
chain: MAGAASPCANGCGPSAPSDAEVVHLCRSLEVGTVMTLFYSKKSQRPERKTFQVKLETRQITWSRGADKIEGAIDIREIKEIRPGKTSRDFDRYQEDPAFRPDQSHCFVILYGMEFRLKTLSLQATSEDEVNMWIRGLTWLMEDTLQAATPLQIERWLRKQFYSVDRNREDRISAKDLKNMLSQVNYRVPNMRFLRERLTDLEQRTSDITYGQFAQLYRSLMYSAQKTMDLPFLEASALRAGERPELCRVSLPEFQQFLLEYQGELWAVDRLQVQEFMLSFLRDPLREIEEPYFFLDEFVTFLFSKENSIWNSQLDEVCPDTMNNPLSHYWISSSHNTYLTGDQFSSESSLEAYARCLRMGCRCIELDCWDGPDGMPVIYHGHTLTTKIKFSDVLHTIKEHAFVASEYPVILSIEDHCSIAQQRNMAQYFKKVLGDTLLTKPVDIAADGLPSPNQLKRKILIKHKKLAEGSAYEEVPTSVMYSENDISNSIKNGILYLEDPVNHEWYPHYFVLTSSKIYYSEETSSDQGNEDEEEPKEASGSTELHSNEKWFHGKLGAGRDGRHIAERLLTEYCIETGAPDGSFLVRESETFVGDYTLSFWRNGKVQHCRIHSRQDAGTPKFFLTDNLVFDSLYDLITHYQQVPLRCNEFEMRLSEPVPQTNAHESKEWYHASLTRAQAEHMLMRVPRDGAFLVRKRNEPNSYAISFRAEGKIKHCRVQQEGQTVMLGNSEFDSLVDLISYYEKHPLYRKMKLRYPINEEALEKIGTAEPDYGALYEGRNPGFYVEANPMPTFKCAVKALFDYKAQREDELTFTKSAIIQNVEKQEGGWWRGDYGGKKQLWFPSNYVEEMVSPAALEPEREHLDENSPLGDLLRGVLDVPACQIAVRPEGKNNRLFVFSISMASVAHWSLDVAADSQEELQDWVKKIREVAQTADARLTEGKMMERRKKIALELSELVVYCRPVPFDEEKIGTERACYRDMSSFPETKAEKYVNKAKGKKFLQYNRLQLSRIYPKGQRLDSSNYDPLPMWICGSQLVALNFQTPDKPMQMNQALFLAGGHCGYVLQPSVMRDEAFDPFDKSSLRGLEPCAICIEVLGARHLPKNGRGIVCPFVEIEVAGAEYDSIKQKTEFVVDNGLNPVWPAKPFHFQISNPEFAFLRFVVYEEDMFSDQNFLAQATFPVKGLKTGYRAVPLKNNYSEGLELASLLVKIDVFPAKQENGDLSPFGGASLRERSCDASGPLFHGRAREGSFEARYQQPFEDFRISQEHLADHFDGRDRRTPRRTRVNGDNRL

Variants of: B1
Conditions: with itk_mouse Itk

Row | Variant | effect of a mutation on the interaction
1 | E709A;K711A | disrupting interaction
2 | R748A;K751A | decreasing interaction
3 | K749A;R753A | decreasing interaction
